{"source": "the nanobody polyreactivity screen of Harvey et al. (2022)", "data": [{"experiment": "yeast display, Sf9 membrane polyspecificity reagent, FACS + sequencing; frameworks hold sequencing errors", "procedure,_shortened": "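In a synthetic yeast display library (Saccharomyces cerevisiae BJ5465), nanobody expression was induced with galactose for 36–48 hours. FACS gates were set low and high (top ~1%) using anti-HA fluorescence for expression and streptavidin fluorescence for binding of the Sf9 membrane reagent. Each polyreactivity label is drawn from the gate of origin.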", "values": [{"sequence": "QVQLVESGGGLLQAGGSLRLSCAASGGTFSLNVMGWYRQAPGKEREFVATITYSGGSTYYADSVKGRFTISRDNAKNTVYLQMKSLKPEDTAVYYCAASFTYSQVTEPYGYWGQGSQVTVSS", "polyreactivity (PSR sort gate)": "low polyreactivity"}, {"sequence": "QVQLVESGGGLVQAGGSLRLSCAASGSIFFYYAMGWYRPAPGKERELVAAITSGGTTNYADSVNGRFTISRDNAKNTVYLQMNSLKPEDTAVYYCAVAGPRYAFFEYDYWGQGTQVTVSS", "polyreactivity (PSR sort gate)": "low polyreactivity"}, {"sequence": "QVQLVESGRGIVQAGGSLRLSCAASGRIFYLNAMGWYRQAPGKERELVAAITRSAASTHYADSVKGRFTISRDNAKNTVYVQMNSLKPEDTAVYYCAARFWYDYRHYDYWGQGTQVTVSS", "polyreactivity (PSR sort gate)": "low polyreactivity"}, {"sequence": "QVQLVESGGGLVQAGGSLRLSCAASGGTFRDYAMGWYRQAPGKERELVASISWTVGGTYADSVKGRFSISRDNAKNTVYLQMNSLKPEDTAVYYCAADYSPSTWYLYYTLYYYWGQGTQVTVSS", "polyreactivity (PSR sort gate)": "low polyreactivity"}, {"sequence": "QVQLVESGGGLVQAGGSLRLSCAASGFSFDSYALGWYRKAPGKERELVAAISRSGGSTYYADSVKGRFTISRDNAKNTVYLQMNSLKPEDTAVYYCARDRDSWGGHDSWGQGTQVTVSS", "polyreactivity (PSR sort gate)": "high polyreactivity"}, {"sequence": "QVQLVESGGGLVQAGGSLRLSCAASGSIFYTYAMGWYRQAPGKEREFVASITYRGSNTYYADSVKGRFTISRDNAKNTVYLQMNSLKPEDTAVYYCAADSFYYRPEYDYWGQGTKVTVSS", "polyreactivity (PSR sort gate)": "low polyreactivity"}, {"sequence": "QVQLVESGGGLVQAGGSLRLSCAASGSTFPGYAMGWYRQAPGKERELVAAINGRGGSTYYADSVKGRFTISRDNAKNTVYLQMNSLKPEDSAVYYCAAFVGSRSAKYIKYWGQGTQVTVSS", "polyreactivity (PSR sort gate)": "high polyreactivity"}, {"sequence": "QVQLVESGGGLVQAGGSLRLSCAASGITFWYNAMGWYRQAPGKERELVAAISGGGGSTYYADSVKGRFTISRDNAMNTVYLQMNSLKPEDTAVYYCAARQVARVYSGRYGYWGQGTQVTVSS", "polyreactivity (PSR sort gate)": "high polyreactivity"}, {"sequence": "QVQLVESGGGLVQAGGSLRLSCAASGSIFGTYAMGWYRQAPGKERELVAAITTSAGSTYYADSVKGRFTISRDNAKNTVYLEMNSLKPEDTAVYYCAKYAYTSVHSWYYYWGQGTQVTVSS", "polyreactivity (PSR sort gate)": "high polyreactivity"}, {"sequence": "QVQLVESGGGLVQAGGSLRLSCAASGPIFAYNAMGWYRQAPGKERELVAAISYSGGSTYYADSVKGRFTISRDNAKNTVYLQMNSLKPEDTAVYYCNAVYRYRTYRYDYWGQGTQVTVSS", "polyreactivity (PSR sort gate)": "high polyreactivity"}, {"sequence": "QVQLVESGGGLVQAGGSLRLICAASGRTFRGDAMGWYRPAPGKERELVAAITKSGGSTYYADSVKGRFTISRDNAKNTVYLQMNSLKPEDTAVYYCAKLRSSRDYDYWGQVTQVTVSS", "polyreactivity (PSR sort gate)": "high polyreactivity"}, {"sequence": "QVQLVESGGGLVQAGGSLRLSCAASGSTFRDNAMGWYRQAPGKERELVAAITVIDGTTYYADSVKGRFTISRDNAKNTVYLQMKSLKPEDTAVYYCAADTIWYEYYYWGQGTQVTVSS", "polyreactivity (PSR sort gate)": "low polyreactivity"}, {"sequence": "QVQLVESGGGLVQAGGSLPLSCAASGSIFTYYAMGSYRQAPGKEREFVAAISRRGGSTYYADSVKGRFTISRDNAKNTVYLQMNSLKPEDTAVYYCNARDTGSSLYYWGQGTQVTVSS", "polyreactivity (PSR sort gate)": "high polyreactivity"}, {"sequence": "QVQLVESGGGLVQAGGSLRLSCAASGSTFTLYAMGWYRQAPGKERELVAAISGIGDSTYYADSVKGRFTISRDNAKNTVYLQMNSLKPEDTAVYYCAADGEYRYDWEYESWGQGTKVTVSS", "polyreactivity (PSR sort gate)": "low polyreactivity"}, {"sequence": "QVQLVESGGGLVQAGGSLRLSCAASGSTFRDYAMGWYRQAPGKERELVAAITSGGTTDYADSVKGRFTISRYNAKNTVYLQMISLKPEDTAVYYCNKDGVVAGYQYDYWGQGTQVTVSS", "polyreactivity (PSR sort gate)": "low polyreactivity"}, {"sequence": "QVQLVESGGGLVQAGGSLRLSCAASGRIILGYAMGWYRQAPGKERELVARITWSGGSTYYADSVKGRFTISRDNAKNTVSLQMNSLKPEDNAVYYCAKRTYYSYPDGYWGQGTQVTVSS", "polyreactivity (PSR sort gate)": "high polyreactivity"}, {"sequence": "QVQLVESGGGLVQAGGSLRLSCAASGRIFYSNTMGWYRQAPGKERELVARIDTGGGSTYADSVKGRFTISRDNAKNTVYLQMNSLKPEDTAVYYCNKKGRWRSWGSTSLVSMDYWGQGTQVTVSS", "polyreactivity (PSR sort gate)": "low polyreactivity"}, {"sequence": "KVQLVESGGGLVQAGGSLRLSCAASGNTFYVYTMGWYRQAPGKERDLVAAISSTGDRTYYADSVKGRFTISRDNAKNTVYLQMNSLKPEDTSVYYCADVRYITKEFYWGLGTQVTVSS", "polyreactivity (PSR sort gate)": "high polyreactivity"}, {"sequence": "QVQLVESGGGLVQAGGSLRLSCAASGRIFIHYAMGWYRQAPGKERELVAAITFNGGSTYYADSVKGRFTISRDNAKNTVYLQMNSLKPEDTAVYYCAARLSKRSGYYYWGQGTQVTVSS", "polyreactivity (PSR sort gate)": "high polyreactivity"}, {"sequence": "QVQLVESGGGLVQAGGSLRLSCAASGRTFFWYAMGWYRQAPGKERELVAAITYRGGGTYYADSVKGRFTISRDNAKNTVYLQMNSLKPEDTAVYYCAAEYWVGVYLYDYWGQGTQVTVSS", "polyreactivity (PSR sort gate)": "high polyreactivity"}, {"sequence": "QVQLVESGGGLVQAGGSLRLSCAASGSTSYPYAMGWYRQAPGKERELVATITSGGRTNYADSVKGRFTISRDNAKNTVYLQMNSLKPEDTAVYYCNARFYRWRSYGYDYWGQGTQVTVSS", "polyreactivity (PSR sort gate)": "high polyreactivity"}, {"sequence": "QVQLVESGGGLVQAGGSLRLSCAASGFILNAYTMGWYRQAPGKERELVATITINGGSTYYADSVKGRFTISRDNAKNTVYLQMNSLKPEDTPVYYCNADYWYKYDYWGQGTQVTVSS", "polyreactivity (PSR sort gate)": "low polyreactivity"}, {"sequence": "QVQLQESGGGLVQAGGSLRLSCAASGTISQEDWMGWYRQAPGKEREFVAAIGLGSNTNYADSLKGRFTISRDNAKNTVYLQMNSLKPEDTAVYYCAVSVWQYSDNVYRGQGTQVTVSS", "polyreactivity (PSR sort gate)": "low polyreactivity"}, {"sequence": "QVQLVESGGGLVQAGGSLRLSCAASGIIFRKNAMGWYRQAPGKERELVAAISSTGASTNYADSVKGRFTISRDNAKNTVYLQMNSLKPEDTAVYYCAASRTRYWKYDYWGQGTQVTVSS", "polyreactivity (PSR sort gate)": "high polyreactivity"}, {"sequence": "QVQLVESGGGLVQAGGSLRLSCAASGRILSPYAMGWYRPAPGKERELVAAISRSGGSTYYADSVKGRFTISRDNAKNTVYLQMNSLKPEDTAVYYCNAVIAWYRSDEYDYWGQGTQVTVSS", "polyreactivity (PSR sort gate)": "high polyreactivity"}, {"sequence": "QVQLVESGGGLVQAGGSLRLSCAASGSTFRSYGMGWYRQAPRKERELVAGISVSGGRTSYADSVKGRFTISRDNAKNTVYLQMNSLKPEDTAVYYCAARRSKVGYHRDYYWGQGTQVTVSS", "polyreactivity (PSR sort gate)": "high polyreactivity"}, {"sequence": "QVQLVESGGGLVQAGGSLRLSCAASGRTFTGYAMGWYRQAPGKERELVASISGSGGRTNYADSVKGRFTISRDNAKNTVYLQMNSLKPEDTAVYYCNARAHSYRKSSYIYLPYSYDYWGQGTQVTVSS", "polyreactivity (PSR sort gate)": "high polyreactivity"}, {"sequence": "QVQLVESGGGLVQAGGSLRLSCAASGSTFGDNAMGSYRQAPGKERELVAAISSGGGSTYYADSVKGRFTISRDNAKNTVYLQMNSLKPEDTAVYYCAADVTLTLYRYILDYWGQGTQVTVSS", "polyreactivity (PSR sort gate)": "low polyreactivity"}, {"sequence": "QVQLVESGGGLVQAGGSLRLSCAASGLTFYYYAMGWYRQAPGKERELVAAISATGGRTYYADSVKGRFTISRDNAKNTVYLQMNSLKPEDTAVYYCAADTPYLRRRLGMDYWGQGTQVTVSS", "polyreactivity (PSR sort gate)": "high polyreactivity"}, {"sequence": "QVQLVESGGGLVQAGGSLRLTCAASGSIFYLNAMGWYRQAPGKERELVATISNGGSTNYADSVKGRFTISRDNAKNTVYLQMYSLKPEDTAVYYCAAASGGTVVGEGDYWGLGTQVTVSS", "polyreactivity (PSR sort gate)": "low polyreactivity"}, {"sequence": "QVQLVESGGGLVQAGGSLRLSCAASGSTFSYNAMGWYRQAPGKERELVAAISGSGGTTYYSDSVKGRFTISRDNAKNTVYLQMNSLKPEDTAVYYCAARPFRSWRYDYWGQGTQVTVSS", "polyreactivity (PSR sort gate)": "low polyreactivity"}, {"sequence": "QVQLVESGGGLVQAGGSLRLSCAASGRIFPYYAMGWYRQAPGKERELVAAITTRGGSTYYADSVKGRFTISRDNAKNTVYLQMNSLKPEDTAVYYCAAVTFGRMEYWGQGTQVTVSS", "polyreactivity (PSR sort gate)": "low polyreactivity"}]}]}
